Reference: US20100323969 (published 2010)
Ends that are not written are not given here. * marks the point of attachment. Galloyl = O=C(c1cc(O)c(O)c(O)c1)*

T1: human P-selectin IgG-Fc chimera (human, UniProt P16109)
T1 chain: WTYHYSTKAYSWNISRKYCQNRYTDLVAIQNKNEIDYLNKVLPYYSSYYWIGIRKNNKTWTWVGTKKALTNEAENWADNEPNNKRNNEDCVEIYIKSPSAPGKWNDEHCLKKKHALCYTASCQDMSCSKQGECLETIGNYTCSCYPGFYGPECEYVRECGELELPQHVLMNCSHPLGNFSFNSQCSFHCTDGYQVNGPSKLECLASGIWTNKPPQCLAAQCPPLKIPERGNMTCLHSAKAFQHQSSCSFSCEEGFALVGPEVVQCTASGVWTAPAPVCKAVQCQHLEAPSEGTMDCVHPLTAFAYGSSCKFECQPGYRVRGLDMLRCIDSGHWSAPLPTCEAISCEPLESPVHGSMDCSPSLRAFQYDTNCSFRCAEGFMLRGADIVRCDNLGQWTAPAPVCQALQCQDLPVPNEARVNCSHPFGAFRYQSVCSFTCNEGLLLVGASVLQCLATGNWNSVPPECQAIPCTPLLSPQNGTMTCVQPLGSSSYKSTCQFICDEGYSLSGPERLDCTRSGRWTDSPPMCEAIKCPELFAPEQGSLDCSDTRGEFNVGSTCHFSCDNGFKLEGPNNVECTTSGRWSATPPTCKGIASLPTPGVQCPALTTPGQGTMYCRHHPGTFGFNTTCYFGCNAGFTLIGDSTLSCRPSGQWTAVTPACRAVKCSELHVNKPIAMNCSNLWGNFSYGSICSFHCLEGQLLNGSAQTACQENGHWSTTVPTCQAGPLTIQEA


Biological target: T1, human P-selectin IgG-Fc chimera
Test: competition ELISA

Row | IC50 | Binder
1 | 0.0371 µM | Galloyl-WVDV [Compound 12 (GA-WVDV)]

Biological target: T1, human P-selectin IgG-Fc chimera
Test: competition ELISA
Remark: another data set of the same source

Row | IC50 | Binder
2 | 2 µM | CDVEWVDVSSLEWDLPC [TM11]
3 | 0.037 µM | Galloyl-WVDV [Compound 12 (GA-WVDV)]
4 | 0.031 µM | Galloyl-EWVDV [Compound 13 (GA-EWVDV)]

Second part, the binder before the results:

Row | Binder | IC50
5 | KWVDV [A130] | 28 µM
6 | AWVDV [A131] | 27 µM
7 | EWVDV [A29] | 8 µM
8 | DWVDV [A129] | 16 µM
